Measured values taken from publication PMC4513857, “PRC2 regulates RNA polymerase III transcribed non-translated RNA gene transcription through EZH2 and SUZ12 interaction with TFIIIC complex” (Nucleic Acids Research, 2015).

Molecular target: T1, GST-EZH2 fragment A, N-terminal region (Domain I + Domain II), aa 1-522 (UniProt Q15910 1-522)
T1 construct: Cloned in pGEX-4T-1; also called fragment A of EZH2; source: E. coli BL21, purified (Glutathione Sepharose 4B)
T1 sequence (looked up): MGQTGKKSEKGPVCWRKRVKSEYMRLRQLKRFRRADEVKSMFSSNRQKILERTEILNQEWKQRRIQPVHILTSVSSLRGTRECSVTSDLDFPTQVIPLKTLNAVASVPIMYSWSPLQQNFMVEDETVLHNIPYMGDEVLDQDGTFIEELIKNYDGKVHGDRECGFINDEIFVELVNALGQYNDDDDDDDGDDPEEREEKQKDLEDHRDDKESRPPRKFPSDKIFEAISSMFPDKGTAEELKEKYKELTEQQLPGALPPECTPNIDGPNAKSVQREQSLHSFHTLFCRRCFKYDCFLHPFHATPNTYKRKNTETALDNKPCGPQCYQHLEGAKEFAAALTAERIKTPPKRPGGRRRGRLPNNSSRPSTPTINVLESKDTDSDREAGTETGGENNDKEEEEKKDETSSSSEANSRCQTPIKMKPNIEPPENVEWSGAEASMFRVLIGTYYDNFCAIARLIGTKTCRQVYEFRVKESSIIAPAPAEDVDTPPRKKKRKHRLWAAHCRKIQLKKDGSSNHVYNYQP
Experiment: pull-down; in vitro pull-down with purified proteins: GST-EZH2 (aa 1-522) and MBP-TFIIIC102 fragment C (aa 524-886)
Details: both partners purified

- binding result: binds
B1: MBP-TFIIIC102 fragment C (aa 524-886) (domain or fragment, UniProt Q9Y5Q9 524-886, looked up)
chain: QDANAAQQELKLLLHRSTLLFSQGKMYGYVDTLLTMLAMLLKVAMNRAQVCLISSSKSGERHLYLIKVSRDKISDSNDQESANCDAKAIFAVLTSVLTKDDWWNLLLKAIYSLCDLSRFQEAELLVDSSLEYYSFYDDRQKRKELEYFGLSAAILDKNFRKAYNYIRIMVMENVNKPQLWNIFNQVTMHSQDVRHHRFCLRLMLKNPENHALCVLNGHNAFVSGSFKHALGQYVQAFRTHPDEPLYSFCIGLTFIHMASQKYVLRRHALIVQGFSFLNRYLSLRGPCQESFYNLGRGLHQLGLIHLAIHYYQKALELPPLVVEGIELDQLDLRRDIAYNLSLIYQSSGNTGMAQTLLYTYCSI
notes: source: purified
